Article PMC4608358, “Physiological modulation of BiP activity by trans-protomer engagement of the interdomain linker” (eLife, 2015)
Where no end group is shown, it is not given here.

Legend:
[1] = target: T1, wildtype hamster BiP, N-terminally hexahistidine-tagged (hamster, UniProt G3I8R9 19-654); experiment: SEC; wildtype BiP (50 µM) incubated 16 hr with 1 mM peptide in HKM, SEC-3 column; competition of peptides with oligomerisation; conditions: both partners purified
T1 construct: BiP (GRP78), hamster; Construct details are in Supplementary file 1; also called wt BiP; wildtype BiP; source: E. coli M15 (pQE10), purified (Ni-NTA); not shown: His6, N-terminal, kept
T1 sequence (G3I8R9 19-654): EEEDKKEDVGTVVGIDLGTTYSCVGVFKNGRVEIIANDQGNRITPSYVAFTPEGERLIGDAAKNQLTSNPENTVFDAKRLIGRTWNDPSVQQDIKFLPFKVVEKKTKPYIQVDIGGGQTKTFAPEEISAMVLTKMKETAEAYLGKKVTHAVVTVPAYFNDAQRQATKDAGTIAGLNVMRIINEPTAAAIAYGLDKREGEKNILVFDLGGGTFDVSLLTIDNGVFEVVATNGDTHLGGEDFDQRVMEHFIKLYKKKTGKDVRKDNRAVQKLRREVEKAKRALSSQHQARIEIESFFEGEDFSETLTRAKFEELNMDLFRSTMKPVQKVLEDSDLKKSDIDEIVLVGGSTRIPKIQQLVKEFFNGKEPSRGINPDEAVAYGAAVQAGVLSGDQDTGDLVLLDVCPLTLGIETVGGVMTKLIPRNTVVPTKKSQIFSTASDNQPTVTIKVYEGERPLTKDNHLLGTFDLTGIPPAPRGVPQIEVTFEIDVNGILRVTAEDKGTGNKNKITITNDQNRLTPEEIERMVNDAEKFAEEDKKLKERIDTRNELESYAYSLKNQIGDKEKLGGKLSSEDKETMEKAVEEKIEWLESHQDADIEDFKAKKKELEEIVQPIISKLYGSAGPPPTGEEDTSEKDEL

[2] = target: T1, wildtype hamster BiP, N-terminally …; experiment: SEC; BiP protein (50 µM) with 1 µM lucifer yellow-labeled tracer (peptide or BiP V461F), 16 hr in HKM; A230 nm and LY fluorescence recorded; with or without SubA (36 ng/µl) before the run; conditions: both partners purified
[3] = target: the molecule itself; experiment: SEC; purified BiP proteins at 50 µM in HKM buffer (50 mM HEPES-KOH pH 7.4, 150 mM KCl, 10 mM MgCl2), 16 hr at room temperature, no added nucleotide; SEC-3 HPLC column, A230 nm
[4] = target: the molecule itself; experiment: native gel or EMSA; purified BiP proteins (30-50 µM) on a Tris-glycine native gel (4.5% stacking, 7.5% separation), Coomassie stain or immunoblot; with or without ATP (3-5 mM)

B1: BiP-binding peptide HTFPAVL (peptide)
peptide: HTFPAVL
notes: well-characterized BiP substrate peptide (Marcinowski et al., 2011); also called BiP substrate peptide
B1: binds [1].

B2: lucifer yellow-labeled BiP-binding peptide (HTFPAVL-LY) (peptide)
peptide: HTFPAVL-{lucifer yellow}
notes: BiP substrate peptide (Marcinowski et al., 2011), fluorescently labelled; also called Pep-LY
With B2 the “ratio of fluorescent to quantity signal R^(FLU/A230 nm), peak II (peak I set to 1.00)” value [2] was 0.48 and the “ratio of fluorescent to quantity signal R^(FLU/A230 nm), peak III (peak I set to 1.00)” value [2] was 0.26.

B3: peptide derived from the interdomain linker of BiP (DTGDLVLLD) (peptide)
peptide: DTGDLVLLD
notes: interdomain linker of BiP (GRP78), hamster; also called Linker Pep; linker peptide
B3: binds [1].

B4: BiP^lidless, hamster BiP lacking its C-terminal lid (∆554–654) (domain or fragment)
chain: not shown
notes: Construct details are in Supplementary file 1; also called lidless BiP; source: E. coli, purified; not shown: His6, N-terminal, kept
B4: binds [3].

B5: BiP^G226D, hamster BiP mutant locked in the domain-uncoupled state (natural protein)
chain: not shown
notes: BiP (GRP78), hamster; Construct details are in Supplementary file 1; source: E. coli, purified; not shown: His6, N-terminal, kept
B5: binds [4].

B6: BiP^T229A, ATPase activity-deficient mutant of hamster BiP (natural protein)
chain: not shown
notes: BiP (GRP78), hamster; Construct details are in Supplementary file 1; source: E. coli M15 (pQE10), purified (Ni-NTA); not shown: His6, N-terminal, kept
B6: binds [4].

B7: BiP^T37G, hamster BiP mutant locked in the domain-uncoupled state (natural protein)
chain: not shown
notes: as for B5
B7: binds [4].
